{"source": "patent US12329823B2", "about": "(The Scripps Research Institute, priority 2021, dated 2025)", "key": {"[1]": {"target": "T1, human GIPR (Homo sapiens, UniProt P48546)", "T1 construct": "expressed in transfected cells; host or cells: HEK293 (CRE-HEK293, HEK293-GIPR-CRE)", "T1 sequence (P48546 22-466)": "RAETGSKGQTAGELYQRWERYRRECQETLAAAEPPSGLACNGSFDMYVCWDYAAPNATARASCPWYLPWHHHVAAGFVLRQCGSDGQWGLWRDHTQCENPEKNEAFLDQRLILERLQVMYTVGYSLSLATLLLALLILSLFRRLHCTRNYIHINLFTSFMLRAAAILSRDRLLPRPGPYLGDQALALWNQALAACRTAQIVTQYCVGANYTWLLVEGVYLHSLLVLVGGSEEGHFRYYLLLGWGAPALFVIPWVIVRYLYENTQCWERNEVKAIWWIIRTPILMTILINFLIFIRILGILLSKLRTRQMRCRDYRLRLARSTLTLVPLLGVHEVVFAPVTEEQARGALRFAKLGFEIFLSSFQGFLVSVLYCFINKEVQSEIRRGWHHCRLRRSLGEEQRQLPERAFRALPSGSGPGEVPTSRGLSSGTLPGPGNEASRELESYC", "assay": "In vitro receptor activation reporter assay (CRE-Luc, HEK293-GIPR-CRE cells; receptor-mediated cAMP synthesis)", "type": "cell-based"}, "[2]": {"assay": "Pharmacokinetics in CD-1 mouse, I.V. or S.C. 1 mg/kg, plasma concentration by LC-MS;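 further: peptide levels in plasma quantified by LC-MS across multiple sampling times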", "protocol": "The peptide plasma concentration at various time points was determined using LC-MS."}, "[3]": {"target": "human GLP-1R (Homo sapiens, UniProt P43220)", "sequence (P43220 24-463)": "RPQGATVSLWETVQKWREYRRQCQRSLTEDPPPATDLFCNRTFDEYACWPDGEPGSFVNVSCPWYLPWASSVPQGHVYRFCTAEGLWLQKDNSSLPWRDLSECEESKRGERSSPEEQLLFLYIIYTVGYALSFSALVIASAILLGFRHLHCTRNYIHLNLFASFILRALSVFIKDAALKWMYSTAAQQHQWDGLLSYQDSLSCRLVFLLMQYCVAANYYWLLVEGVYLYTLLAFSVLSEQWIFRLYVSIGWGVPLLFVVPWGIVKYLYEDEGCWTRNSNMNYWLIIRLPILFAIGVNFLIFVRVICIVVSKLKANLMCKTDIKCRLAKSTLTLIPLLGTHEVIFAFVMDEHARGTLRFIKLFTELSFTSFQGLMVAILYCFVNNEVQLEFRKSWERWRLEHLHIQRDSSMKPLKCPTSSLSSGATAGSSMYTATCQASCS", "assay": "In vitro receptor activation reporter assay (CRE-Luc, HEK293-GLP-1R-CRE cells; receptor-mediated cAMP synthesis)", "type": "cell-based", "set-up": "expressed in transfected cells; host or cells: HEK293 (CRE-HEK293, HEK293-GLP-1R-CRE)", "protocol": "HEK293 cells were infected with lentivirus encoding firefly luciferase gene under the control of cAMP responsive element (CRE) promoter (Qiagen, The Netherlands) and then were selected using 1 μg mL^−1 puromycin (Life Technologies, Carlsbad) for 1 week. The surviving cells (referred to as CRE-HEK293) were expanded and then transfected with a G418 selective mammalian expression plasmid encoding human GLP-1R or GIPR. In brief, GLP-1R or GIPR plasmid was transfected into CRE-HEK293 cells using Lipofectamine 2000 and selected with 400 μg mL^−1 Geneticin (Life Technologies, Carlsbad, CA). Single colony stable cell line overexpressing CRE-luciferase and GLP-1R or GIPR (HEK293-GLP-1R-CRE or HEK293-GIPR-CRE) was then established for in vitro activity assay.\nThe EC50 of each peptide was determined using GraphPad Prism 6 software (GraphPad, San Diego, CA).\nHEK293 cells were infected with lentivirus encoding firefly luciferase gene under the control of cAMP responsive element (CRE) promoter (Qiagen, The Netherlands) and then were selected using 1 μg/mL puromycin (Life Technologies, Carlsbad) for 1 week. The surviving cells (referred to as CRE-HEK293) were expanded and then transfected with a G418 selective mammalian expression plasmid encoding human GLP-1R. In brief, GLP-1R plasmid was transfected into CRE-HEK293 cells using Lipofectamine 2000 and selected with 400 μg/mL Geneticin (Life Technologies, Carlsbad, CA). Single colony stable cell line overexpressing CRE-luciferase and GLP1R was then established for in vitro activity assay."}, "[4]": {"assay": "In vivo oral glucose tolerance test (OGTT) 12 h after a single S.C. dose", "set-up": "species or system mouse", "conditions": "10 nmol/kg S.C.; 12 h before glucose", "description": "Mice were fasted overnight prior to the oral glucose tolerance test (OGTT), and then dosed with peptide. After 12 h, 1 g of glucose solution per kg body weight was administered orally, and mouse tail blood glucose levels were measured before (0 min) and after glucose challenge for 90 minutes (with measurements at 15, 30, 60 and 90 minutes) (FIG. 16). The data were compared using the unpaired Student's t test. Where appropriate, data were compared using repeated measures or one-way analysis of variance, followed by the Student-Newman-Keuls post hoc test. Calculations for […] (mg/dL*min) were also analyzed and graphed in FIG. 16. […]. […]."}, "[5]": {"assay": "Acute oral glucose tolerance test (OGTT) in wild-type mice, 2 h and 96 h post injection", "type": "in vivo, mouse", "conditions": "96 h after administration; 10 nmol/kg s.c."}}, "note": "Like-named read-outs stand apart in the source and are kept apart here.", "data": [{"molecule": "CC[C@H](C)[C@H](NC(=O)[C@H](CC(C)C)NC(=O)[C@H](Cc1c[nH]c2ccccc12)NC(=O)[C@H](CC(N)=O)NC(=O)[C@@H](NC(=O)[C@H](Cc1ccccc1)NC(=O)[C@@H]1CSCC(=O)NCCN(C(=O)CCC(=O)NCCOCCOCCC(=O)NCCOCCOCCC(=O)NCCCC[C@H](NC(=O)CCCCCCCCCCCCCCCCCCC(=O)O)C(=O)O)CCNC(=O)CSC[C@H](NC(=O)[C@H](Cc2ccc(O)cc2)NC(=O)[C@@H](NC(=O)[C@H](CO)NC(=O)[C@H](Cc2ccc(O)cc2)NC(=O)[C@H](CC(=O)O)NC(=O)[C@H](CO)NC(=O)[C@@H](NC(=O)[C@H](Cc2ccccc2)NC(=O)[C@@H](NC(=O)CNC(=O)[C@H](CCC(=O)O)NC(=O)C(C)(C)NC(=O)[C@@H](N)Cc2ccc(O)cc2)[C@@H](C)O)[C@@H](C)O)[C@@H](C)CC)C(=O)N[C@@H](CC(=O)O)C(=O)N[C@@H](CCCCN)C(=O)N[C@@H](CCC(N)=O)C(=O)N[C@@H](C)C(=O)N[C@@H](C)C(=O)NC(C)(C)C(=O)N1)C(C)C)C(=O)N[C@@H](C)C(=O)NCC(=O)NCC(=O)N1CCC[C@H]1C(=O)N[C@@H](CO)C(=O)N[C@@H](CO)C(=O)NCC(=O)N[C@@H](C)C(=O)N1CCC[C@H]1C(=O)N1CCC[C@H]1C(=O)N1CCC[C@H]1C(=O)N[C@@H](CO)C(N)=O", "note": "[mCMV266, YAibEGT-FTSDY-SIYXD-KQAAAib-XFVNW-LIAGG-PSSGA-PPPS-NH2 (where each X is C) (SEQ ID NO: 52)]", "values": [{"measurement": "EC50", "setting": "[1]; EC50 GIPR 02/19, unnumbered table, run 02/19", "result": 0.08, "unit": "nM"}, {"measurement": "EC50", "setting": "[1]; EC50 GIPR 03/25, unnumbered table, run 03/25", "result": 0.06, "unit": "nM"}, {"measurement": "EC50", "setting": "[1]; EC50 GIPR 03/26, unnumbered table, run 03/26", "result": 0.06, "unit": "nM"}, {"measurement": "EC50", "setting": "[1]; EC50 GIPR, Table 8", "result": 0.07, "unit": "nM"}, {"measurement": "EC50", "setting": "[1]; unnumbered table, average of runs, read-out: EC50 GIPR average", "result": 0.07, "unit": "nM"}, {"measurement": "bioavailability", "setting": "[2]; CD-1, mouse, in vivo, sc, 1 mg/kg", "result": 63, "unit": "%"}, {"measurement": "Cl", "setting": "[2]; Table 14, SC 1 mg/kg", "result": 4.02, "unit": "mL/h/kg"}, {"measurement": "Vd", "setting": "[2]; Table 14, SC 1 mg/kg", "result": 0.063, "unit": "L/kg"}, {"measurement": "AUC(0-inf)", "setting": "[2]; mouse, in vivo, iv, 1 mg/kg", "result": 397, "unit": "µg·h/mL"}, {"measurement": "Cmax", "setting": "[2]; mouse, in vivo, iv, 1 mg/kg", "result": 30400, "unit": "ng/mL"}, {"measurement": "MRT last", "setting": "[2]; mouse, in vivo, iv, 1 mg/kg", "result": 18.6, "unit": "h"}, {"measurement": "Tmax", "setting": "[2]; mouse, in vivo, iv, 1 mg/kg", "result": 0.5, "unit": "h"}, {"measurement": "Vd", "setting": "[2]; mouse, in vivo, iv, 1 mg/kg", "result": 0.043, "unit": "L/kg"}, {"measurement": "clearance", "setting": "[2]; mouse, in vivo, iv, 1 mg/kg", "result": 2.58, "unit": "mL/h/kg"}, {"measurement": "half-life", "setting": "[2]; mouse, in vivo, iv, 1 mg/kg", "result": 11.5, "unit": "h"}, {"measurement": "AUC(0-t)", "setting": "[2]; mouse, in vivo, iv, 1 mg/kg, AUC0-24, Table 14, IV 1 mg/kg", "result": 269, "unit": "µg·h/mL"}, {"measurement": "AUC(0-t)", "setting": "[2]; mouse, in vivo, iv, 1 mg/kg, AUCLAST, Table 14, IV 1 mg/kg", "result": 390, "unit": "µg·h/mL"}, {"measurement": "AUC(0-inf)", "setting": "[2]; mouse, in vivo, sc, 1 mg/kg", "result": 252, "unit": "µg·h/mL"}, {"measurement": "Cmax", "setting": "[2]; mouse, in vivo, sc, 1 mg/kg", "result": 6610, "unit": "ng/mL"}, {"measurement": "MRT last", "setting": "[2]; mouse, in vivo, sc, 1 mg/kg", "result": 24.3, "unit": "h"}, {"measurement": "Tmax", "setting": "[2]; mouse, in vivo, sc, 1 mg/kg", "result": 12.7, "unit": "h"}, {"measurement": "half-life", "setting": "[2]; mouse, in vivo, sc, 1 mg/kg", "result": 10.7, "unit": "h"}, {"measurement": "AUC(0-t)", "setting": "[2]; mouse, in vivo, sc, 1 mg/kg, AUC0-24, Table 14, SC 1 mg/kg", "result": 135, "unit": "µg·h/mL"}, {"measurement": "AUC(0-t)", "setting": "[2]; mouse, in vivo, sc, 1 mg/kg, AUCLAST, Table 14, SC 1 mg/kg", "result": 247, "unit": "µg·h/mL"}, {"measurement": "EC50", "setting": "[3]; EC50 GLP1R 02/19, unnumbered table, run 02/19", "result": 0.03, "unit": "nM"}, {"measurement": "EC50", "setting": "[3]; EC50 GLP1R 3/25, unnumbered table, run 3/25", "result": 0.05, "unit": "nM"}, {"measurement": "EC50", "setting": "[3]; EC50 GLP1R 03/26, unnumbered table, run 03/26", "result": 0.06, "unit": "nM"}, {"measurement": "EC50", "setting": "[3]; EC50 GLP1R, Table 8", "result": 0.05, "unit": "nM"}, {"measurement": "EC50", "setting": "[3]; unnumbered table, average of runs, read-out: EC50 GLP1R average", "result": 0.05, "unit": "nM"}]}, {"molecule": "CCCC[C@@H]1NC(=O)[C@H](C)NC(=O)[C@H](C)NC(=O)[C@H](CCC(N)=O)NC(=O)[C@H](CCCCN)NC(=O)[C@H](CC(=O)O)NC(=O)[C@@H](NC(=O)[C@H](Cc2ccc(O)cc2)NC(=O)[C@@H](NC(=O)[C@H](CC(=O)O)NC(=O)[C@H](Cc2ccc(O)cc2)NC(=O)[C@H](CC(=O)O)NC(=O)[C@H](CO)NC(=O)[C@H](Cc2c[nH]cn2)NC(=O)[C@H](Cc2ccccc2)NC(=O)[C@@H](NC(=O)CNC(=O)[C@H](CCC(=O)O)NC(=O)C(C)(C)NC(=O)[C@@H](N)Cc2ccc(O)cc2)[C@@H](C)O)[C@@H](C)CC)CCCCNC(=O)CN(C(=O)CCNC(=O)CCOCCOCCNC(=O)CCOCCOCCNC(=O)CC[C@H](NC(=O)CCCCCCCCCCCCCCCCC(=O)O)C(=O)O)CC(=O)NCCCC[C@@H](C(=O)N[C@@H](Cc2ccccc2)C(=O)N[C@H](C(=O)N[C@@H](C)C(=O)N[C@@H](Cc2c[nH]c3ccccc23)C(=O)N[C@@H](CC(C)C)C(=O)N[C@@H](CC(C)C)C(=O)N[C@@H](C)C(=O)NCC(=O)NCC(=O)N2CCC[C@H]2C(=O)N[C@@H](CO)C(=O)N[C@@H](CO)C(=O)NCC(=O)N[C@@H](C)C(=O)N2CCC[C@H]2C(=O)N2CCC[C@H]2C(=O)N2CCC[C@H]2C(=O)N[C@@H](CO)C(N)=O)C(C)C)NC1=O", "note": "[ZA-42 - K5, YAibEGT-FHSDY-DIYXD-KQAANle-XFVAW-LLAGG-PSSGA-PPPS-NH2 (where each X is K) (SEQ ID NO: 47)]", "values": [{"measurement": "EC50", "setting": "[3]; Table 7, read-out: EC50 GLP1R", "result": "~13700", "unit": "nM"}]}, {"molecule": "Semaglutide [reference compound]", "values": [{"measurement": "effects on glucose tolerance", "setting": "[4]", "result": "indistinguishable effects on glucose tolerance"}, {"measurement": "glucose handling (OGTT) versus vehicle", "setting": "[5]", "result": "did not exhibit any improvement over the vehicle"}]}, {"molecule": "CC[C@H](C)[C@H](NC(=O)[C@H](CO)NC(=O)[C@H](Cc1ccc(O)cc1)NC(=O)[C@H](CC(=O)O)NC(=O)[C@H](CO)NC(=O)[C@@H](NC(=O)[C@H](Cc1ccccc1)NC(=O)[C@@H](NC(=O)CNC(=O)[C@H](CCC(=O)O)NC(=O)C(C)(C)NC(=O)[C@@H](N)Cc1ccc(O)cc1)[C@@H](C)O)[C@@H](C)O)C(=O)N[C@@H](Cc1ccc(O)cc1)C(=O)N[C@H]1CCCCNC(=O)CN(C(=O)CCNC(=O)CCOCCOCCNC(=O)CCOCCOCCNC(=O)CC[C@H](NC(=O)CCCCCCCCCCCCCCCCC(=O)O)C(=O)O)CC(=O)NCCCC[C@@H](C(=O)N[C@@H](Cc2ccccc2)C(=O)N[C@H](C(=O)N[C@@H](CC(N)=O)C(=O)N[C@@H](Cc2c[nH]c3ccccc23)C(=O)N[C@@H](CC(C)C)C(=O)N[C@@H](CC(C)C)C(=O)N[C@@H](C)C(=O)NCC(=O)NCC(=O)N2CCC[C@H]2C(=O)N[C@@H](CO)C(=O)N[C@@H](CO)C(=O)NCC(=O)N[C@@H](C)C(=O)N2CCC[C@H]2C(=O)N2CCC[C@H]2C(=O)N2CCC[C@H]2C(=O)N[C@@H](CO)C(N)=O)C(C)C)NC(=O)C(C)(C)NC(=O)[C@H](C)NC(=O)[C@H](C)NC(=O)[C@H](CCC(N)=O)NC(=O)[C@H](CCCCN)NC(=O)[C@H](CC(=O)O)NC1=O", "note": "[mCLZ715, YAibEGT-FTSDY-SIYXD-KQAAAib-XFVNW-LLAGG-PSSGA-PPPS-NH2 (where each X is K) (SEQ ID NO: 40)]", "values": [{"measurement": "fasted glucose levels", "setting": "[5]", "result": "significantly reduce fasted glucose levels"}, {"measurement": "glucose handling (OGTT) versus vehicle", "setting": "[5]", "result": "more significant improvements in handling glucose"}]}]}
